Measurements as given in article PMC8202325.
Values joined by “and” are separate entries in the source; they are usually repeats but may differ in a detail not shown here. Equal values may be shown once.

Molecular target: His::PfPLSCR (recombinant full-length Plasmodium falciparum phospholipid scramblase with an N-terminal hexa-histidine affinity tag) (P. falciparum)
Test: native gel or EMSA; blue native PAGE (NativePAGE Novex Bis-Tris, G250 additive) of eluted fractions of the main SEC peak; protein purified in 250 mM NaCl, 0.5 mM CaCl2, 1 mM TCEP, 0.1 % FC-12, 25 mM HEPES pH 7.5

- stoichiometry N: 2 and 4
Substance: His::PfPLSCR (recombinant full-length Plasmodium falciparum phospholipid scramblase with an N-terminal hexa-histidine affinity tag) (natural protein)
